Assay results reported in PMC2787667 (Cellular signalling, 2009).

What was measured:
Experiment in all cases: FRET or BRET
[1] = target: hFSHR(Y110A,H485A,S488A,M492A,I495A,F504A), as Rluc and GFP2 fusion proteins (human) (UniProt P23945)
[2] = target: hFSHR(H485A,S488A,M492A,I495A,F504A), as Rluc and GFP2 fusion proteins (human) (UniProt P23945)
FRET or BRET = target: the molecule itself

Sequence of hFSHR(Y110A,H485A,S488A,M492A,I495A,F504A), as Rluc and GFP2 fusion proteins (P23945 18-695 Y110A/H485A/S488A/M492A/I495A, stated change not applied): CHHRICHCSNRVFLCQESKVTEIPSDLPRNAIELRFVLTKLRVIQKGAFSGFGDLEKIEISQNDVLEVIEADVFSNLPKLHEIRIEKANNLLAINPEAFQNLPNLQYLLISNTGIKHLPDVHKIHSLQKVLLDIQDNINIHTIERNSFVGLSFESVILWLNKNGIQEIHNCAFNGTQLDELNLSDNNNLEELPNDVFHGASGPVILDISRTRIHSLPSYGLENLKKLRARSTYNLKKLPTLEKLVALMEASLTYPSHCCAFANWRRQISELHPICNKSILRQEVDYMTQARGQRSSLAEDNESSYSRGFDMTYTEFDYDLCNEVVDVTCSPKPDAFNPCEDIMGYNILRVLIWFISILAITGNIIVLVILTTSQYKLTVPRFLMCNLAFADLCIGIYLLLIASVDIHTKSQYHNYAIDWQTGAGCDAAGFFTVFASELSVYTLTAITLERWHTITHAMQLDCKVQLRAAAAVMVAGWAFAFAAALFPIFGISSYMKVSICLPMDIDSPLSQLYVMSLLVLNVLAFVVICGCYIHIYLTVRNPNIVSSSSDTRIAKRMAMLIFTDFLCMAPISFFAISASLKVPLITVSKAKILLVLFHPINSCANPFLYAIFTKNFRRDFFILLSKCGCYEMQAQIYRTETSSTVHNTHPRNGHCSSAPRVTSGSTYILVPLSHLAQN
Sequence of hFSHR(H485A,S488A,M492A,I495A,F504A), as Rluc and GFP2 fusion proteins (P23945 18-695 H485A/S488A/M492A/I495A, stated change not applied): as the sequence (P23945 18-695 Y110A/H485A/S488A/M492A/I495A, stated change not applied) above, with A93Y counted along it

| Molecule | BRET50 mut/BRET50 wt (FRET or BRET) [ratio] | also measured |
| --- | --- | --- |
| hFSHR(Y110A,H485A,S488A,M492A,I495A,F504A), as Rluc and GFP2 fusion proteins (from UniProt P23945 18-695) (receptor) |  | BRET50 mut/BRET50 wt [1]: 1.29 |
| hFSHR(H485A,S488A,M492A,I495A,F504A), as Rluc and GFP2 fusion proteins (from UniProt P23945 18-695) (receptor) |  | BRET50 mut/BRET50 wt [2]: 1.41 |
| hFSHR(M490A,W494A,I495A), as Rluc and GFP2 fusion proteins (receptor, human, UniProt P23945 18-695, looked up) CHHRICHCSNRVFLCQESKVTEIPSDLPRNAIELRFVLTKLRVIQKGAFSGFGDLEKIEISQNDVLEVIEADVFSNLPKLHEIRIEKANNLLYINPEAFQNLPNLQYLLISNTGIKHLPDVHKIHSLQKVLLDIQDNINIHTIERNSFVGLSFESVILWLNKNGIQEIHNCAFNGTQLDELNLSDNNNLEELPNDVFHGASGPVILDISRTRIHSLPSYGLENLKKLRARSTYNLKKLPTLEKLVALMEASLTYPSHCCAFANWRRQISELHPICNKSILRQEVDYMTQARGQRSSLAEDNESSYSRGFDMTYTEFDYDLCNEVVDVTCSPKPDAFNPCEDIMGYNILRVLIWFISILAITGNIIVLVILTTSQYKLTVPRFLMCNLAFADLCIGIYLLLIASVDIHTKSQYHNYAIDWQTGAGCDAAGFFTVFASELSVYTLTAITLERWHTITHAMQLDCKVQLRHAASVAVMGAAFAFAAALFPIFGISSYMKVSICLPMDIDSPLSQLYVMSLLVLNVLAFVVICGCYIHIYLTVRNPNIVSSSSDTRIAKRMAMLIFTDFLCMAPISFFAISASLKVPLITVSKAKILLVLFHPINSCANPFLYAIFTKNFRRDFFILLSKCGCYEMQAQIYRTETSSTVHNTHPRNGHCSSAPRVTSGSTYILVPLSHLAQN | 1.5 |  |
| hFSHR(I381A,V491A), as Rluc and GFP2 fusion proteins (receptor, human, UniProt P23945 18-695, looked up) CHHRICHCSNRVFLCQESKVTEIPSDLPRNAIELRFVLTKLRVIQKGAFSGFGDLEKIEISQNDVLEVIEADVFSNLPKLHEIRIEKANNLLYINPEAFQNLPNLQYLLISNTGIKHLPDVHKIHSLQKVLLDIQDNINIHTIERNSFVGLSFESVILWLNKNGIQEIHNCAFNGTQLDELNLSDNNNLEELPNDVFHGASGPVILDISRTRIHSLPSYGLENLKKLRARSTYNLKKLPTLEKLVALMEASLTYPSHCCAFANWRRQISELHPICNKSILRQEVDYMTQARGQRSSLAEDNESSYSRGFDMTYTEFDYDLCNEVVDVTCSPKPDAFNPCEDIMGYNILRVLIWFISILAITGNAIVLVILTTSQYKLTVPRFLMCNLAFADLCIGIYLLLIASVDIHTKSQYHNYAIDWQTGAGCDAAGFFTVFASELSVYTLTAITLERWHTITHAMQLDCKVQLRHAASVMAMGWIFAFAAALFPIFGISSYMKVSICLPMDIDSPLSQLYVMSLLVLNVLAFVVICGCYIHIYLTVRNPNIVSSSSDTRIAKRMAMLIFTDFLCMAPISFFAISASLKVPLITVSKAKILLVLFHPINSCANPFLYAIFTKNFRRDFFILLSKCGCYEMQAQIYRTETSSTVHNTHPRNGHCSSAPRVTSGSTYILVPLSHLAQN | 1.69 |  |
| hFSHR(I382A,V383A,M490A,V491A), as Rluc and GFP2 fusion proteins (receptor, human, UniProt P23945 18-695, looked up) CHHRICHCSNRVFLCQESKVTEIPSDLPRNAIELRFVLTKLRVIQKGAFSGFGDLEKIEISQNDVLEVIEADVFSNLPKLHEIRIEKANNLLYINPEAFQNLPNLQYLLISNTGIKHLPDVHKIHSLQKVLLDIQDNINIHTIERNSFVGLSFESVILWLNKNGIQEIHNCAFNGTQLDELNLSDNNNLEELPNDVFHGASGPVILDISRTRIHSLPSYGLENLKKLRARSTYNLKKLPTLEKLVALMEASLTYPSHCCAFANWRRQISELHPICNKSILRQEVDYMTQARGQRSSLAEDNESSYSRGFDMTYTEFDYDLCNEVVDVTCSPKPDAFNPCEDIMGYNILRVLIWFISILAITGNIAALVILTTSQYKLTVPRFLMCNLAFADLCIGIYLLLIASVDIHTKSQYHNYAIDWQTGAGCDAAGFFTVFASELSVYTLTAITLERWHTITHAMQLDCKVQLRHAASVAAMGWIFAFAAALFPIFGISSYMKVSICLPMDIDSPLSQLYVMSLLVLNVLAFVVICGCYIHIYLTVRNPNIVSSSSDTRIAKRMAMLIFTDFLCMAPISFFAISASLKVPLITVSKAKILLVLFHPINSCANPFLYAIFTKNFRRDFFILLSKCGCYEMQAQIYRTETSSTVHNTHPRNGHCSSAPRVTSGSTYILVPLSHLAQN | 0.934 |  |
| hFSHR(Y110A), full-length, as Rluc and GFP2 fusion proteins (receptor, human, UniProt P23945 18-695, looked up) CHHRICHCSNRVFLCQESKVTEIPSDLPRNAIELRFVLTKLRVIQKGAFSGFGDLEKIEISQNDVLEVIEADVFSNLPKLHEIRIEKANNLLAINPEAFQNLPNLQYLLISNTGIKHLPDVHKIHSLQKVLLDIQDNINIHTIERNSFVGLSFESVILWLNKNGIQEIHNCAFNGTQLDELNLSDNNNLEELPNDVFHGASGPVILDISRTRIHSLPSYGLENLKKLRARSTYNLKKLPTLEKLVALMEASLTYPSHCCAFANWRRQISELHPICNKSILRQEVDYMTQARGQRSSLAEDNESSYSRGFDMTYTEFDYDLCNEVVDVTCSPKPDAFNPCEDIMGYNILRVLIWFISILAITGNIIVLVILTTSQYKLTVPRFLMCNLAFADLCIGIYLLLIASVDIHTKSQYHNYAIDWQTGAGCDAAGFFTVFASELSVYTLTAITLERWHTITHAMQLDCKVQLRHAASVMVMGWIFAFAAALFPIFGISSYMKVSICLPMDIDSPLSQLYVMSLLVLNVLAFVVICGCYIHIYLTVRNPNIVSSSSDTRIAKRMAMLIFTDFLCMAPISFFAISASLKVPLITVSKAKILLVLFHPINSCANPFLYAIFTKNFRRDFFILLSKCGCYEMQAQIYRTETSSTVHNTHPRNGHCSSAPRVTSGSTYILVPLSHLAQN | 1.74 |  |
| hFSHR(W436A,W494A), as Rluc and GFP2 fusion proteins (receptor, human, UniProt P23945 18-695, looked up) CHHRICHCSNRVFLCQESKVTEIPSDLPRNAIELRFVLTKLRVIQKGAFSGFGDLEKIEISQNDVLEVIEADVFSNLPKLHEIRIEKANNLLYINPEAFQNLPNLQYLLISNTGIKHLPDVHKIHSLQKVLLDIQDNINIHTIERNSFVGLSFESVILWLNKNGIQEIHNCAFNGTQLDELNLSDNNNLEELPNDVFHGASGPVILDISRTRIHSLPSYGLENLKKLRARSTYNLKKLPTLEKLVALMEASLTYPSHCCAFANWRRQISELHPICNKSILRQEVDYMTQARGQRSSLAEDNESSYSRGFDMTYTEFDYDLCNEVVDVTCSPKPDAFNPCEDIMGYNILRVLIWFISILAITGNIIVLVILTTSQYKLTVPRFLMCNLAFADLCIGIYLLLIASVDIHTKSQYHNYAIDAQTGAGCDAAGFFTVFASELSVYTLTAITLERWHTITHAMQLDCKVQLRHAASVMVMGAIFAFAAALFPIFGISSYMKVSICLPMDIDSPLSQLYVMSLLVLNVLAFVVICGCYIHIYLTVRNPNIVSSSSDTRIAKRMAMLIFTDFLCMAPISFFAISASLKVPLITVSKAKILLVLFHPINSCANPFLYAIFTKNFRRDFFILLSKCGCYEMQAQIYRTETSSTVHNTHPRNGHCSSAPRVTSGSTYILVPLSHLAQN | 1.29 |  |
